Key:
[1] = target: GST-MDM2 (human MDM2 residues 17-125) (human) (UniProt Q00987); test: direct binding of the FITC-labeled peptide to MDM2
[2] = target: GST-MDM2 (human MDM2 residues 17-125) (human) (UniProt Q00987); test: ratio of KD values of FITC-labeled peptides

GST-MDM2 (human MDM2 residues 17-125) (human), sequence (Q00987 17-125): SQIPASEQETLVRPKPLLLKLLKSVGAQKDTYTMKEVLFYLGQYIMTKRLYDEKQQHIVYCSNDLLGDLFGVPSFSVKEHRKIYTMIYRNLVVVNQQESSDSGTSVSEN

Substance: peptide 9, Ac-LTFhCHYWhCQLTS-miniPEG-K(FITC)-NH2, stapled with BBA-CPP9
- Kd [1]: 114 nM
- fold decrease of affinity against peptide 8 [2]: 8 fold

From patent US20230106131A1
